Laboratory results published in US11260115B1, “Peptides and combination of peptides for use in immunotherapy against CLL and other cancers” (immatics biotechnologies GmbH, priority 2015, dated 2022).

target: HLA-A*02:01 (Homo sapiens, UniProt P04439, D140Y/D185E/D98H/E176V/E277Q/G131W/G231S/I119V/I121R/I166T/I218V/L300P/L318F/N151K/N90K/P208A/P217A/Q86G/Q94H/R138H/R169H/T345S); test: MHC binding assay (UV-ligand exchange, β2m ELISA, peptide exchange yield); details: binding to HLA-A*02:01
Outline: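 Peptide-HLA-A*02:01 complexes formed by UV-mediated exchange of a photocleavable ligand; exchange yield measured by streptavidin-capture ELISA detecting β2m with HRP anti-β2m, TMB read at 450 nm. Refolded monomer standards 15-500 ng/ml; samples diluted 100-fold.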

Peptide Exchange (MHC class I binding score, peptide exchange yield)	Substance
“+++” (>50 = +++)	314 (LMKDCEAEV; listed as Homo sapiens) [compound 314]
“+++” (>50 = +++)	315 (LVYEAPETV; listed as Homo sapiens) [compound 315]
“+++” (>50 = +++)	316 (MLLEHGITL; listed as Homo sapiens) [compound 316]
“+++” (>50 = +++)	317 (NLLAHIWAL; listed as Homo sapiens) [compound 317]
“+++” (>50 = +++)	318 (NLQVTQPTV; listed as Homo sapiens) [compound 318]
“+++” (>50 = +++)	319 (QVIPQLQTV; listed as Homo sapiens) [compound 319]
“+++” (>50 = +++)	321 (RLLEFELAQL; listed as Homo sapiens) [compound 321]
“+++” (>50 = +++)	324 (SLYSALQQA; listed as Homo sapiens) [compound 324]
“+++” (>50 = +++)	325 (TLENGVPCV; listed as Homo sapiens) [compound 325]
“++++” (>75% = ++++)	326 (VLAFLVHEL; listed as Homo sapiens) [compound 326]
“++++” (>75% = ++++)	327 (VLIKWFPEV; listed as Homo sapiens) [compound 327]
“++++” (>75% = ++++)	328 (VLLPQETAEIHL; listed as Homo sapiens) [compound 328]
“++++” (>75% = ++++)	329 (VLMDGSVKL; listed as Homo sapiens) [compound 329]
“+++” (>50 = +++)	330 (VLMWEIYSL; listed as Homo sapiens) [compound 330]
“+++” (>50 = +++)	331 (VLWELAHLPTL; listed as Homo sapiens) [compound 331]
“+++” (>50 = +++)	333 (VTLEFPQLIRV; listed as Homo sapiens) [compound 333]
“+++” (>50 = +++)	334 (YLLEEKIASL; listed as Homo sapiens) [compound 334]
“+++” (>50 = +++)	335 (YLYQEQYFI; listed as Homo sapiens) [compound 335]
“++++” (>75% = ++++)	336 (YMAVTTQEV; listed as Homo sapiens) [compound 336]
“++” (>20% = ++)	337 (YMYEKESEL; listed as Homo sapiens) [compound 337]
“++++” (>75% = ++++)	338 (FLDMTNWNL; listed as Homo sapiens) [compound 338]
“+++” (>50 = +++)	339 (GLWGTVVNI; listed as Homo sapiens) [compound 339]

Peptide Exchange (MHC class I binding score, peptide exchange yield)	Substance
“++++” (>75% = ++++)	340 (KLLEEICNL; listed as Homo sapiens) [compound 340]
“+++” (>50 = +++)	341 (LLAELPASVHA; listed as Homo sapiens) [compound 341]
“+++” (>50 = +++)	342 (SLITPLQAV; listed as Homo sapiens) [compound 342]
“+++” (>50 = +++)	344 (VLAFENPQV; listed as Homo sapiens) [compound 344]
“+++” (>50 = +++)	345 (YLIEPDVELQRI; listed as Homo sapiens) [compound 345]
“+++” (>50 = +++)	346 (VLVQVSPSL; listed as Homo sapiens) [compound 346]
“+++” (>50 = +++)	347 (YLGPVSPSL; listed as Homo sapiens) [compound 347]
“+++” (>50 = +++)	348 (ALAKPPVVSV; listed as Homo sapiens) [compound 348]
“+++” (>50 = +++)	349 (ALATHILSL; listed as Homo sapiens) [compound 349]
“+++” (>50 = +++)	350 (ALEDRVWEL; listed as Homo sapiens) [compound 350]
“+++” (>50 = +++)	351 (ALSEKLARL; listed as Homo sapiens) [compound 351]
“+++” (>50 = +++)	352 (ALVFELHYV; listed as Homo sapiens) [compound 352]
“++” (>20% = ++)	353 (ATPMPTPSV; listed as Homo sapiens) [compound 353]
“+++” (>50 = +++)	354 (FIMDDPAGNSYL; listed as Homo sapiens) [compound 354]
“+++” (>50 = +++)	355 (FIWPMLIHI; listed as Homo sapiens) [compound 355]
“++” (>20% = ++)	356 (FLHDHQAEL; listed as Homo sapiens) [compound 356]
“+++” (>50 = +++)	357 (FLIQEIKTL; listed as Homo sapiens) [compound 357]
“+++” (>50 = +++)	358 (FLTDYLNDL; listed as Homo sapiens) [compound 358]
“+++” (>50 = +++)	359 (FMQDPMEVFV; listed as Homo sapiens) [compound 359]
“+++” (>50 = +++)	360 (HLIDTNKIQL; listed as Homo sapiens) [compound 360]
“+++” (>50 = +++)	361 (ILQEFESKL; listed as Homo sapiens) [compound 361]
“+++” (>50 = +++)	362 (ILTELGGFEV; listed as Homo sapiens) [compound 362]

Peptide Exchange (MHC class I binding score, peptide exchange yield)	Substance
“+++” (>50 = +++)	363 (ITTEVVNELYV; listed as Homo sapiens) [compound 363]
“+++” (>50 = +++)	364 (KMDWIFHTI; listed as Homo sapiens) [compound 364]
“+++” (>50 = +++)	365 (LISPLLLPV; listed as Homo sapiens) [compound 365]
“+++” (>50 = +++)	367 (NLWSLVAKV; listed as Homo sapiens) [compound 367]
“+++” (>50 = +++)	369 (RLLDLENSLLGL; listed as Homo sapiens) [compound 369]
“+++” (>50 = +++)	370 (SIFASPESV; listed as Homo sapiens) [compound 370]
“+++” (>50 = +++)	371 (SLADDSVLERL; listed as Homo sapiens) [compound 371]
“+++” (>50 = +++)	372 (SLFGPLPGPGPALV; listed as Homo sapiens) [compound 372]
“++” (>20% = ++)	373 (TLLADQGEIRV; listed as Homo sapiens) [compound 373]
“+++” (>50 = +++)	374 (VLSVITEEL; listed as Homo sapiens) [compound 374]
“+++” (>50 = +++)	375 (VLWFKPVEL; listed as Homo sapiens) [compound 375]
“+++” (>50 = +++)	376 (VLYNQRVEEI; listed as Homo sapiens) [compound 376]
“+++” (>50 = +++)	377 (VVDGTCVAV; listed as Homo sapiens) [compound 377]
“+++” (>50 = +++)	378 (YILGKFFAL; listed as Homo sapiens) [compound 378]
“+++” (>50 = +++)	379 (YLAELVTPIL; listed as Homo sapiens) [compound 379]
“+++” (>50 = +++)	381 (YLLEENKIKL; listed as Homo sapiens) [compound 381]
“++++” (>75% = ++++)	382 (YLLPLLQRL; listed as Homo sapiens) [compound 382]
“++++” (>75% = ++++)	383 (YLLREWVNL; listed as Homo sapiens) [compound 383]
“++++” (>75% = ++++)	384 (YMIGSEVGNYL; listed as Homo sapiens) [compound 384]
“+++” (>50 = +++)	385 (YTIPLAIKL; listed as Homo sapiens) [compound 385]
